# Experimental data taken from US20100104577A1 (published 2010).
# B1: scFv40.1 (scFv)
# scFv: EVQLQQSGADLVKPGASVKLSCTASGFNIKATYMHWVRQRPEQGLEWIGRIDPANGDTKYDPKFQGKATLTVDTSSNTAYLQLSSLTSEDTAVYYCSTLYYREAYWGQGTLVTVSAGGGGSGGGSGGGGSDVVMTQTPLTLSVTIGQPASISCKSSQRLIYSDGKTYLNWLLQRPGQSPKRLIYLVSKLDSGVPDRFTGSGSGTDFTLKISRVEAEDLGVYYCWQGTHFPVTFGAGTKLELKR
# notes: VH-linker-VL from mAb40.1; secreted from 293T HEK cells (pSecTag), detected by anti-His and anti-myc; Tested as conditioned medium
# B2: scFv42.2 (scFv)
# scFv: EVQLQQSGPELVKPGASGKISCKTSGYTFSENTMHWVKQSHGKSLEWIGGINPNTGATYYNQKFKGKATLTVDTSSSTAYLELRSLTSADSAVYYCVRNGLLTLGAMDYWGQGTSVTVSSGGGGSGGGGSGGGGSDVVMTQTPLSLPVSLGDQASISCRSSQSLVHSNGNTYLYWCLQKPGQSPKLLIYKVSSRFSGVPDRFSGSGSGTDFTLKISRVEAEDLGVYFCSQSTHAPLTFGAGTKLELKR
# notes: VH-linker-VL from mAb42.2; secreted from 293T HEK cells (pSecTag), detected by anti-His and anti-myc; Tested as conditioned medium; also called anti-Aβ42 specific scFv42.2
# What was measured:
# [1] = target: T1, Aβ1-40 (human, UniProt P05067 672-711); assay: pulldown of conditioned media of transfected 293T cells with fibrillar Aβ40, western blot with anti-His
# T1 construct: domain: Aβ1-40; Used as a soluble peptide (ELISA), as fibrils (fAβ40 pulldown) and as expressed in TgBRI-Aβ40, Tg2576 and CRND8 mice (plasma complexes); also called Aβ40; human Aβ40
# T1 sequence (P05067 672-711 limits assumed): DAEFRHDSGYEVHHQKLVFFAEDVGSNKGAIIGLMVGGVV
# Protocol: (§1) Fibrillar Aβ pulldown assays. One mL of conditioned media from 293T HEK cells transiently transfected with pSecTag palsmids encoding the anti-Aβ scFv was incubated with 10 μg of fibrillar Aβ40 or Aβ42 (fAβ) at 4° C. for 1 hour. The fibrils were then spun down and resuspended in SDS-PAGE loading buffer. The presence of scFv was determined by western blot with rabbit anti-His (Bethyl). To determine the Aβ40 binding properties of scFv secreted into the media, capture ELISA was used with Aβ40 peptide as capture and anti-myc-HRP, 1:2000, as detection.
# (§2) Prior to testing the effects of the scFv in vivo, the anti-Aβ scFvs expressed from 293T cells were characterized.
# [2] = target: T2, Aβ1-42 (human, UniProt P05067 672-713); assay: pulldown of conditioned media of transfected 293T cells with fibrillar Aβ42, western blot with anti-His
# T2 construct: domain: Aβ1-42; also called Aβ42; fAβ42 (fibrillar form in the pulldown)
# T2 sequence (P05067 672-713 limits assumed): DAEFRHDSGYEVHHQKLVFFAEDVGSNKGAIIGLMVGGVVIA
# Protocol: as §1, §2
Binder,binding result [1],binding result [2]
B1,binds,
B2,no binding,binds
